PMC2841500 (Biochemical Journal, 2010)
Where two headings read alike, the source gives them in different places.

Key:
Alba1 (Sso10b) [1] = target: T1, Alba1 (Sso10b) (Sulfolobus solfataricus, UniProt P60849 1-97); test: EMSA
T1 sequence: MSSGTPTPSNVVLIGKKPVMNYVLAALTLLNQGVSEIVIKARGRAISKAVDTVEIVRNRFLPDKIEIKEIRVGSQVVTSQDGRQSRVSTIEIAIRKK

pulsed ESR = target: the molecule itself; test: pulsed ESR
Alba1 F60A [2] = target: T2, Alba1 F60A (Sulfolobus solfataricus, UniProt P60849 1-97, F60A); test: EMSA
T2 sequence: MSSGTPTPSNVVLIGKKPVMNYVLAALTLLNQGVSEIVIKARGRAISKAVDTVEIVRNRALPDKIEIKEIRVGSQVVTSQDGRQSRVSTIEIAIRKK

Alba1 (Sso10b) [3] = target: T1, Alba1 (Sso10b); test: EMSA; remark: listed apart in the source
Alba1 F60A [4] = target: T2, Alba1 F60A; test: EMSA; remark: listed apart in the source
Alba1 (Sso10b) [5] = target: T1, Alba1 (Sso10b); test: EMSA; remark: listed apart in the source
Alba1 (Sso10b) [6] = target: T1, Alba1 (Sso10b); test: EMSA; remark: listed apart in the source

B1: 30U (ssRNA)
RNA: UUUUUUUUUUUUUUUUUUUUUUUUUUUUUU
Kd (Alba1 (Sso10b) [1]): 900 ± 38 nM

B2: spin-labelled Alba R59C (S. solfataricus Alba1 R59C modified with MTSSL) (natural protein, Sulfolobus solfataricus, UniProt P60849 1-97, looked up)
chain: MSSGTPTPSNVVLIGKKPVMNYVLAALTLLNQGVSEIVIKARGRAISKAVDTVEIVRNCFLPDKIEIKEIRVGSQVVTSQDGRQSRVSTIEIAIRKK
modifications: methanethiosulfonate spin label MTSSL on the cysteine at position 59
binding result (pulsed ESR): binds

B3: 39 bp duplex (dsDNA)
DNA 1: CCTCGGTGCTAAGTTGATGCTGGTACTCGGAGTATCCCG
DNA 2: CGGGATACTCCGAGTACCAGCATCAACTTAGCACCGAGG
Kd (Alba1 F60A [2]): 520 ± 13 nM

B4: 39 mer ssDNA (ssDNA)
DNA: CCTCGGTGCTAAGTTGATGCTGGTACTCGGAGTATCCCG
Kd (Alba1 (Sso10b) [3]): 270 ± 13 nM

B5: 16 bp duplex (dsDNA)
DNA 1: CCCGGCGTGCGGCCCG
DNA 2: CGGGCCGCACGCCGGG
Kd (Alba1 F60A [4]): 710 ± 20 nM

B6: 16 mer ssRNA (ssRNA)
RNA: CCCGGCGUGCGGCCCG
Kd (Alba1 (Sso10b) [5]): 920 ± 69 nM

B7: 28A (ssRNA)
RNA: AAAAAAAAAAAAAAAAAAAAAAAAAAAA
Kd (Alba1 (Sso10b) [6]): 960 ± 30 nM
